We go through six molecules from patent US20210155676A1.

This test concerns the target Env of 92 subtype B viruses. Description: cell-based or functional assay.

B1: PGT121.42 hIgG1/hLambda (antibody)
heavy: QMQLQESGPGLVKPSETLSLTCSVSGASISDSYWSWIRRSPGKGLEWIGYVHKSGDTNYNPSLKSRVHLSLDTSKNQVSLSLSSVTAADSGKYYCARTLHGRRIYGIVAFNEWFTYFYMDVWGKGTQVTVSSASTKGPSVFPLAPSSKSTSGGTAALGCLVKDYFPEPVTVSWNSGALTSGVHTFPAVLQSSGLYSLSSVVTVPSSSLGTQTYICNVNHKPSNTKVDKKVEPKSCDKTHTCPPCPAPELLAGPDVFLFPPKPKDTLMISRTPEVTCVVVDVSHEDPEVKFNWYVDGVEVHNAKTKPREEQYNSTYRVVSVLTVLHQDWLNGKEYKCKVSNKALPLPEEKTISKAKGQPREPQVYTLPPSREEMTKNQVSLTCLVKGFYPSDIAVEWESNGQPENNYKTTPPVLDSDGSFFLYSKLTVDKSRWQQGNVFSCSVLHEALHSHYTQKSLSLSPGK
light: not shown
Regarding B1, the PGT121 IC50/Variant IC50 was found to be 1.2 fold, the neutralization Coverage (%) was found to be 63% and the neutralization Median IC95 stood at 0.277 µg/mL.

B2: PGT121.61 hIgG1/hLambda (antibody)
heavy: QMQLQESGPGLVKPSETLSLTCSVSGASISDSYWSWIRRSPGKGLEWIGYVHKSGDTNYNPSLKSRVHLSLDTSKNQVSLSLTGVTAADSGKYYCARTLHGRRIYGIVAFNEWFTYFYMDVWGTGTQVTVSSASTKGPSVFPLAPSSKSTSGGTAALGCLVKDYFPEPVTVSWNSGALTSGVHTFPAVLQSSGLYSLSSVVTVPSSSLGTQTYICNVNHKPSNTKVDKKVEPKSCDKTHTCPPCPAPELLAGPDVFLFPPKPKDTLMISRTPEVTCVVVDVSHEDPEVKFNWYVDGVEVHNAKTKPREEQYNSTYRVVSVLTVLHQDWLNGKEYKCKVSNKALPLPEEKTISKAKGQPREPQVYTLPPSREEMTKNQVSLTCLVKGFYPSDIAVEWESNGQPENNYKTTPPVLDSDGSFFLYSKLTVDKSRWQQGNVFSCSVLHEALHSHYTQKSLSLSPGK
light: SDISVAPGETARISCGEKSLGSRAVQWYQHRAGQAPSLIIYNNQDRPSGIPERFSGSPDSRPGTTATLTITSVEAGDEADYYCHIWDSRVPTKWVFGGGTKLTVLGQPKAAPSVTLFPPSSEELQANKATLVCLISDFYPGAVTVAWKADSSPVKAGVETTTPSKQSNNKYAASSYLSLTPEQWKSHRSYSCQVTHEGSTVEKTVAPTECS
In turn, B2 came in with a PGT121 IC50/Variant IC50 of 1 fold, a neutralization Coverage (%) of 58.7% and a neutralization Median IC95 of 0.327 µg/mL.

B3: PGT121.56 hIgG1/hLambda (antibody)
heavy: QMQLQESGPGLVKPSETLSLTCSVSGASISDSYWSWIRRSPGKGLEWIGYVHKSGDTNYSPSLKSRVNLSLDTSKNQVSLSLVAATAADSGKYYCARTLHGRRIYGIVAFNEWFTYFYMDVWGNGTQVTVSSASTKGPSVFPLAPSSKSTSGGTAALGCLVKDYFPEPVTVSWNSGALTSGVHTFPAVLQSSGLYSLSSVVTVPSSSLGTQTYICNVNHKPSNTKVDKKVEPKSCDKTHTCPPCPAPELLAGPDVFLFPPKPKDTLMISRTPEVTCVVVDVSHEDPEVKFNWYVDGVEVHNAKTKPREEQYNSTYRVVSVLTVLHQDWLNGKEYKCKVSNKALPLPEEKTISKAKGQPREPQVYTLPPSREEMTKNQVSLTCLVKGFYPSDIAVEWESNGQPENNYKTTPPVLDSDGSFFLYSKLTVDKSRWQQGNVFSCSVLHEALHSHYTQKSLSLSPGK
light: not shown
B3 had a neutralization Coverage (%) of 62% and a neutralization Median IC95 of 0.265 µg/mL.

B4: PGT121.65 hIgG1/hLambda (antibody)
heavy: QLQLQESGPGLVKPSETLSLTCSVSGASISDAYWSWIRRSPGKGLEWIGYVHKSGDTNYNPSLKSRVHLSLDTSKNQVSLSLTGVTAADSGKYYCARALHGRRIYGIVAFNEWFTYFYMDVWGTGTQVTVSSASTKGPSVFPLAPSSKSTSGGTAALGCLVKDYFPEPVTVSWNSGALTSGVHTFPAVLQSSGLYSLSSVVTVPSSSLGTQTYICNVNHKPSNTKVDKKVEPKSCDKTHTCPPCPAPELLAGPDVFLFPPKPKDTLMISRTPEVTCVVVDVSHEDPEVKFNWYVDGVEVHNAKTKPREEQYNSTYRVVSVLTVLHQDWLNGKEYKCKVSNKALPLPEEKTISKAKGQPREPQVYTLPPSREEMTKNQVSLTCLVKGFYPSDIAVEWESNGQPENNYKTTPPVLDSDGSFFLYSKLTVDKSRWQQGNVFSCSVLHEALHSHYTQKSLSLSPGK
light: SDISVAPGETARISCGEKSLGSRAVQWYQHRAGQAPSLIIYNNQDRPSGIPERFSGSPDSRPGTTATLTITSVEAGDEADYYCHIWDSRVPTKWVFGGGTKLTVLGQPKAAPSVTLFPPSSEELQANKATLVCLISDFYPGAVTVAWKADSSPVKAGVETTTPSKQSNNKYAASSYLSLTPEQWKSHRSYSCQVTHEGSTVEKTVAPTECS
Molecule B4 had a PGT121 IC50/Variant IC50 of 2 fold, a neutralization Coverage (%) of 59.8% and a neutralization Median IC95 of 0.165 µg/mL.

B5: PGT121.60 hIgG1/hLambda (antibody)
heavy: QMQLQESGPGLVKPSETLSLTCSVSGASISDSYWSWIRRSPGKGLEWIGYVHKSGDTNYNPSLKSRVHLSLDTSKNQVSLSLTGVTAADSGKYYCARTLHGRRIYGIVAFNEWFTYFYMDVWGTGTQVTVSSASTKGPSVFPLAPSSKSTSGGTAALGCLVKDYFPEPVTVSWNSGALTSGVHTFPAVLQSSGLYSLSSVVTVPSSSLGTQTYICNVNHKPSNTKVDKKVEPKSCDKTHTCPPCPAPELLAGPDVFLFPPKPKDTLMISRTPEVTCVVVDVSHEDPEVKFNWYVDGVEVHNAKTKPREEQYNSTYRVVSVLTVLHQDWLNGKEYKCKVSNKALPLPEEKTISKAKGQPREPQVYTLPPSREEMTKNQVSLTCLVKGFYPSDIAVEWESNGQPENNYKTTPPVLDSDGSFFLYSKLTVDKSRWQQGNVFSCSVLHEALHSHYTQKSLSLSPGK
light: not shown
B5 came in with a PGT121 IC50/Variant IC50 of 1.9 fold, a neutralization Coverage (%) of 59.8% and a neutralization Median IC95 of 0.177 µg/mL.

B6: PGT121.64 hIgG1/hLambda (antibody)
heavy: QLQLQESGPGLVKPSETLSLTCSVSGASISDAYWSWIRRSPGKGLEWIGYVHKSGDTNYNPSLKSRVHLSLDTSKNQVSLSLTGVTAADSGKYYCARALHGRRIYGIVAFNEWFTYFYMDVWGTGTQVTVSSASTKGPSVFPLAPSSKSTSGGTAALGCLVKDYFPEPVTVSWNSGALTSGVHTFPAVLQSSGLYSLSSVVTVPSSSLGTQTYICNVNHKPSNTKVDKKVEPKSCDKTHTCPPCPAPELLAGPDVFLFPPKPKDTLMISRTPEVTCVVVDVSHEDPEVKFNWYVDGVEVHNAKTKPREEQYNSTYRVVSVLTVLHQDWLNGKEYKCKVSNKALPLPEEKTISKAKGQPREPQVYTLPPSREEMTKNQVSLTCLVKGFYPSDIAVEWESNGQPENNYKTTPPVLDSDGSFFLYSKLTVDKSRWQQGNVFSCSVLHEALHSHYTQKSLSLSPGK
light: not shown
Molecule B6 had a PGT121 IC50/Variant IC50 of 2.6 fold, a neutralization Coverage (%) of 59.8% and a neutralization Median IC95 of 0.129 µg/mL.
